Each block holds one binder with its values, some of them ahead of it. Primed or numbered codes have the meaning given here. Where no end group is shown, it is not given here. [ ]: non-standard residue; d: D form. The star is where a group is joined. Az2 = aminoazidobutanoic acid, ring closure; dPhe(4-Br) = N[C@H](Cc1ccc(Br)cc1)C(=O)O; 2Nal = N[C@@H](Cc1ccc2ccccc2c1)C(=O)O; Palmitoyl = CCCCCCCCCCCCCCCC(=O)*; Tic = O=C(O)[C@@H]1Cc2ccccc2CN1; Cha = N[C@@H](CC1CCCCC1)C(=O)O; Dab = NCC[C@H](N)C(=O)O; Thz′ = not defined here; Phf = not defined here
Assays:
[1] = molecular target: KRAS (WT) as expressed in BxPC-3 cells (human) (UniProt P01116); test: cell-based or functional assay
[2] = molecular target: KRAS (G12D) as expressed in G12D-mutant cancer cells (AsPC-1, SW 1990, pancreatic cancer cells) (human) (UniProt P01116); test: cell-based or functional assay

pERK WT (BxPC-3 at 4 µM for 12 hours) [1]: 1.27 | pERK G12D (AsPC-1 at 4 µM for 12 hours) [2]: 1.13
B3: Ac-wky(Cha)-Lys(Pal) (peptide)
peptide: Ac-[dW][dK][dY][Cha]K(Palmitoyl)
modifications: triazole (positions not given here); also: cyclic via triazole, ring-closing residues not given here

pERK WT (BxPC-3 at 4 µM for 12 hours) [1]: 1.71 | pERK G12D (AsPC-1 at 4 µM for 12 hours) [2]: 1.14
B8: Ac-wky(4-F-f)-Lys(Pal) (peptide)
peptide: Ac-[dW][dK][dY][4‑F‑f]K(Palmitoyl)
modifications: triazole (positions not given here); also: cyclic via triazole, ring-closing residues not given here

pERK WT (BxPC-3 at 4 µM for 12 hours) [1]: 1.16 | pERK G12D (AsPC-1 at 4 µM for 12 hours) [2]: 0.794
B9: Ac-wkyf-Az2-Lys(Pal) (peptide)
peptide: Ac-[dW][dK][dY][dF][Az2]K(Palmitoyl)
modifications: triazole (positions not given here); also: cyclic via triazole, other ring-closing residue not given here

pERK WT (BxPC-3 at 4 µM for 12 hours) [1]: 0.757 | pERK G12D (AsPC-1 at 4 µM for 12 hours) [2]: 1.32
B11: Ac-wky(Phf)-Lys(Pal) (peptide)
peptide: Ac-[dW][dK][dY][Phf]K(Palmitoyl)
modifications: triazole (positions not given here); reading uncertain; also: cyclic via triazole, ring-closing residues not given here, printed as Ac-wky(Phf)-Lys(Pal)

The next lines start with the binder.

B1: Ac-w(Dab)yf-Lys(Pal) (peptide)
peptide: Ac-[dW][Dab][dY][dF]K(Palmitoyl)
modifications: triazole (positions not given here); also: cyclic via triazole, ring-closing residues not given here
pERK WT (BxPC-3 at 4 µM for 12 hours) [1]: 0.982 | pERK G12D (AsPC-1 at 4 µM for 12 hours) [2]: 0.625

B2: Ac-wky(4-Cl-f)-Lys(Pal) (peptide)
peptide: Ac-[dW][dK][dY][4‑Cl‑f]K(Palmitoyl)
modifications: triazole (positions not given here); also: cyclic via triazole, ring-closing residues not given here
pERK WT (BxPC-3 at 4 µM for 12 hours) [1]: 1.05 | pERK G12D (AsPC-1 at 4 µM for 12 hours) [2]: 0.8

B4: Ac-wky(2-Nal)-Lys(Pal) (peptide)
peptide: Ac-[dW][dK][dY][2Nal]K(Palmitoyl)
modifications: triazole (positions not given here); also: cyclic via triazole, ring-closing residues not given here
pERK WT (BxPC-3 at 4 µM for 12 hours) [1]: 0.871 | pERK G12D (AsPC-1 at 4 µM for 12 hours) [2]: 0.71

B5: Ac-(Tic)kyf-Lys(Pal) (peptide)
peptide: Ac-[Tic][dK][dY][dF]K(Palmitoyl)
modifications: triazole (positions not given here); also: cyclic via triazole, ring-closing residues not given here
pERK WT (BxPC-3 at 4 µM for 12 hours) [1]: 0.806 | pERK G12D (AsPC-1 at 4 µM for 12 hours) [2]: 0.974

B6: Ac-(Thz)kyf-Lys(Pal) (peptide)
peptide: Ac-[Thz′][dK][dY][dF]K(Palmitoyl)
modifications: triazole (positions not given here); reading uncertain; also: cyclic via triazole, ring-closing residues not given here, printed as Ac-(Thz)kyf-Lys(Pal)
pERK WT (BxPC-3 at 4 µM for 12 hours) [1]: 0.851 | pERK G12D (AsPC-1 at 4 µM for 12 hours) [2]: 1.11

B7: Ac-wk(4-Br-f)f-Lys(Pal) (peptide)
peptide: Ac-[dW][dK][dPhe(4-Br)][dF]K(Palmitoyl)
modifications: triazole (positions not given here); also: cyclic via triazole, ring-closing residues not given here
pERK WT (BxPC-3 at 4 µM for 12 hours) [1]: 0.895 | pERK G12D (AsPC-1 at 4 µM for 12 hours) [2]: 0.776

B10: Ac-wky(4-Br-f)-Lys(Pal) (peptide)
peptide: Ac-[dW][dK][dY][dPhe(4-Br)]K(Palmitoyl)
modifications: triazole (positions not given here); also: cyclic via triazole, ring-closing residues not given here
pERK WT (BxPC-3 at 4 µM for 12 hours) [1]: 1.09 | pERK G12D (AsPC-1 at 4 µM for 12 hours) [2]: 0.606

From patent publication US20220323614A1, “KRAS-SPECIFIC CYCLIC PEPTIDES, COMPOSITIONS, AND METHODS OF USING AND MAKING” (Indi Molecular, Inc., priority 2021, published 2022)
